Measured values reported in US20120264231A1, “ASSAY FOR ORAI CALCIUM CHANNEL REGULATORS” (IMMUNE DISEASE INSTITUTE, INC., priority 2009, published 2012).

Biological target: ORAI1 (Homo sapiens, UniProt Q96D31)
Test: Cameleon D3 cpV/D4 cpV intravesicular Ca^2+ assay, sec6-4 vesicles with ORAI1
Type: biochemical
Set-up: the ORAI functional fragment is ORAI1 (65-301), ORAI1 (65-87), or full length ORAI1; made in house; host or cells: S. cerevisiae NY17 (sec6-4), isolated secretory vesicles, vector pBEVY-GU
Protocol: In complementary measurements, vesicular Ca^2+ was monitored directly by coexpressing ORAI1 with the Ca^2+ sensor D3 cpV or D4 cpV53 fused to the α-mating factor secretion signal to target the sensor to the vesicles. Vesicles that had incorporated ORAI1 were isolated from sec6-4 yeast incubated at the restrictive temperature and were diluted into assay buffer.
Vesicles carrying ORAI 1 were isolated from S cerevisiae strain NY1 7 according to a standard protocol (Coury, L. A., et al., Methods Enzymol 306, 169-186 (1999); Nakamoto, R. K., et al., J Biol Chem 266, 7940-7949 (1991)). Efflux of Ca^2+ elicited by STIM1^CT fragments was detected by suspending the vesicles in a buffer containing Fura-2 as principal Ca^2+ buffer, and monitoring the Fura-2 fluorescence excitation spectrum (Meyer, T., et al., Biochemistry 29, 32-37 (1990)). As a complementary approach, ORAI 1 was coexpressed with a Ca^2+ sensor cameleon D3 cpV or cameleon D4 cpV53 that was targeted to the vesicles, and changes in intravesicular [Ca^2+] were detected as changes in FRET between CFP and YFP of the sensor.
The yeast expression vector pBEVY-GU60 allows for simultaneous expression of two transgenes by means of the bidirectional GAL1-10 promoter. The FRET-based calcium sensors D3 cpV and D4 cpV53 were fused at the N-terminus with the S. cerevisiae α-mating factor secretion signal (Bitter, G. A., et al., Proc Natl Acad Sci USA 81, 5330-5334 (1984)), which directs proteins into the secretory pathway, and introduced into pBEVY-GU in the following way. Vector pPIC9 (Invitrogen) served as template for PCR amplification of the α-mating factor secretion signal (5′ primer: […] (SEQ ID NO: 2); 3′ primer: […] (SEQ ID NO: 3)), introducing an EcoRI site at the 5′ end, and a sequence complementary to that encoding the N-terminus of the calcium sensor at the 3′ end. DNA encoding the N-terminal portion of the calcium sensor D3 cpV, comprising CFP, was amplified by PCR (5′ primer: […] (SEQ ID NO: 4); 3′ primer: […] (SEQ ID NO: 5)), introducing an SphI site followed by a stop codon and a NotI site at the 3′ end of the resulting DNA fragment. PCR-mediated fusion of the fragments representing the α-mating factor secretion signal and the sensor CFP fragment yielded αCFP, which was digested with EcoRI and NotI and subcloned into pSM703. […] Human ORAI1 was Myc-tagged at the N-terminus by PCR (5′ primer: […] (SEQ ID NO: 6); 3′ primer: […] TGGCTGCCGGGC (SEQ ID NO: 7)) and subcloned as an EcoRI-BamHI fragment into pSM703. A fragment containing Myc-ORAI1 was excised from the resulting plasmid by EcoRI digestion, blunt-ended with the Klenow fragment of DNA polymerase I, and cut with AvrII. […]

[1] = STIM 1 cytoplasmic fragments 2 μM

Chain of ORAI1 (Q96D31 2-301): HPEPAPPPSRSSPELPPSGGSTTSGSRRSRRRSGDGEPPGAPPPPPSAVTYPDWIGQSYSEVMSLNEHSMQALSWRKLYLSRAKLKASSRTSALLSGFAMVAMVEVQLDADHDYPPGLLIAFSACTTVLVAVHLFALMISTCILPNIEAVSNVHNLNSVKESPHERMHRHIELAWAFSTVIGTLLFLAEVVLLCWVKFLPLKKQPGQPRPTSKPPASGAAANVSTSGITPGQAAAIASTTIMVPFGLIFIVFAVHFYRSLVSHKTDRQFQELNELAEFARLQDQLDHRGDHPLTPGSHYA

Compound	vesicular Ca^2+ (cameleon FRET signal) (ionomycin 20 μM)	vesicular Ca^2+ (cameleon FRET signal) [1]	fluorescence intensity ratio F528 nm/F475 nm (D3 cpV sensor, wildtype ORAI1, STIM^CT 2.6 μM, p<0.001)
C[C@H](CCC(=O)O)C[C@H](C)C[C@H](C)C(=O)/C=C(\O)[C@H](C)C[C@H](C)C/C=C/[C@@H](C)[C@@H](O)[C@@H](C)[C@@H](O)C[C@@H]1CC[C@@](C)([C@H]2CC[C@@](C)([C@@H](C)O)O2)O1 [ionomycin, reference compound]	depletion of vesicular Ca^2+		
STIM1 (233-498): truncated mouse STIM1 cytoplasmic fragment, residues 233-498, His-tagged recombinant protein		triggered substantial loss of vesicular Ca^2+	
STIM1^CT: cytoplasmic region of STIM1, mouse residues 233-685, His-tagged recombinant protein expressed in E coli		triggered substantial loss of vesicular Ca^2+	changes the ratio significantly
